The text below walks through data of patent US20200179497A1.

Common to all, as to assay: cell-based or functional assay
The target in test [1] is IVIg (Octagam).
In test [2] the target is IVIg (Octagam). This is another data set of the same source.
The target in another test is adalimumab (Humira).
Another test has as its target denosumab (XGEVA).

Like-named read-outs stand apart in the source and are kept apart here.

With “BX1001865 (IdeS lacking tag, produced to GMP standard) (enzyme)”, in the test with IVIg (Octagam) [1], the Conc. of enzyme, 2nd IgG heavy chain, scIgG to F(ab')2 (gel) came to 6000 ng/mL; the enzyme concentration giving a dominating scIgG band on SDS-PAGE amounted to 1.9 ng/mL; the enzyme concentration giving mainly scIgG on SDS-PAGE turned out to be 1.9 ng/mL. In the test with IVIg (Octagam) [2], the Conc. of enzyme, 1st IgG heavy chain, IgG to scIgG (gel) was found to be 1900 ng/mL and the Conc. of enzyme, 2nd IgG heavy chain, scIgG to F(ab')2 (gel) was 7500 ng/mL.
“pCART124 (IdeS with additional N terminal methionine and histidine tag) (enzyme)”: in the test with IVIg (Octagam) [1], the Conc. of enzyme, 2nd IgG heavy chain, scIgG to F(ab')2 (gel) amounted to 6000 ng/mL and the enzyme concentration giving a dominating scIgG band on SDS-PAGE was determined as 1.9 ng/mL. Further, in the test with IVIg (Octagam) [2], the Conc. of enzyme, 1st IgG heavy chain, IgG to scIgG (gel) came out at 1900 ng/mL and the Conc. of enzyme, 2nd IgG heavy chain, scIgG to F(ab')2 (gel) worked out at 7500 ng/mL.
In the test with adalimumab (Humira), “pCART144 (IdeZ with additional N terminal methionine and histidine tag) (enzyme)” gave an enzyme concentration giving equal cleavage on SDS-PAGE of 4.6 ng/mL. The substance further returned an enzyme concentration giving a dominating F(ab')2 band on SDS-PAGE with denosumab (XGEVA) of 3.3 µg/mL. The same substance had an enzyme concentration giving a single intense scIgG band on SDS-PAGE with denosumab (XGEVA) (scale: pig/ml) of 0.12.
